Data set [1] has as its target T1, NIP7 (human, recombinant) (Homo sapiens, UniProt Q9Y221 1-180).
T1 sequence: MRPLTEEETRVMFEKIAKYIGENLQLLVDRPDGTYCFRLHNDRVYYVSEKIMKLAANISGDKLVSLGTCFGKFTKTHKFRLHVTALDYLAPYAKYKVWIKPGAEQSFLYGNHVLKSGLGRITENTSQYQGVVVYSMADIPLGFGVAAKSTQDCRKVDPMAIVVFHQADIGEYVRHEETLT
Briefly: EMSA. For orientation: In EMSA bound probe runs differently from free probe, usually more slowly.

The next data set deals with T2, Nip7p (yeast) (Saccharomyces cerevisiae, UniProt Q08962 1-181).
T2 sequence: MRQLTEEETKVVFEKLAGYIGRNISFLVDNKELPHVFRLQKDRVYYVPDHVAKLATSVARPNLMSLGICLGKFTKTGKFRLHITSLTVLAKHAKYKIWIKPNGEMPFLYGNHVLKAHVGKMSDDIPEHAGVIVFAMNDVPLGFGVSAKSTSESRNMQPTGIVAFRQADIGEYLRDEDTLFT
Briefly: EMSA.

This is an account of results in publication PMC3025556.

B1: poly-AU(21) (ssRNA)
RNA: UUAUUAUUUAUUUAUUAUUUA
For B1, in data set [1], the binding result is “binds”.

B2: poly-U(20) (ssRNA)
RNA: UUUUUUUUUUUUUUUUUUUU
As to B2, the binding result with Nip7p (yeast) is given as “binds”.
